This note sets out measurements from US20240101645A1 (HENRY M JACKSON FOUNDATION FOR THE ADVANCEMENT OF MILITARY …, published 2024).

Where a chain is given by its changes, count along the chain named.

B1: COV_2125 (antibody, V domains shown)
VH: EVQLVESGGGVVQPGRSLRLSCAASGFTFSSYGMHWVRQAPGKGLEWVAVISYDGSNKYYADSVKGRFTISRDNSKNTLSLQMNSLRPEDTAVYYCAKDSPYYYDSSGYYPGYFQDWGQGSLVTVSS
VL: DIQMTQSPSSLSASIGDRVTITCRASQTISDYLNWYQQKPGKAPNLLIYAASTLQSGVPSRFSGSGSGTDFTLTISSLQPEDFATYYCQQSYITPRTFGQGTKVEIK
notes: human IgG1
B2: COV_2032 (antibody, V domains shown)
VH: EVQLVESGGGLVQPGGSLRLSCAASGFTFTTYWMHWVRQAPGKGLVWVSRIKTDGSSTNYADSVKGRFTISRDNAKNMLYLQMNSLRAEDTAVYYCAREGPVSIVYFDYWGQGTLVTVSS
VL: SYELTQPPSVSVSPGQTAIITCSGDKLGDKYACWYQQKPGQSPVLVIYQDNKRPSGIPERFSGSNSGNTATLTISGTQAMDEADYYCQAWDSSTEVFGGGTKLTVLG
notes: human IgG1
B3: COV_1177 (antibody, V domains shown)
VH: QVQLVESGGGVVQPGRSLRLSCAASGFTFSSYGMHWVRQAPGKGLEWVAVIWYDGSNKYYADSVKGRFTISRDNSKNTLYLQMNSLRAEDTAVYYCARDPLGAVAGYFDYWGQGTLVTVSS
VL: SYVLTQPPSVSVAPGQTARITCGGNNIGSKSVHWYQQKPGQAPVLVVYDDSDRPSGIPERFSGSNSGNTATLTISRVEAGDEADYYCQVWDSSSDHHWVFGGGTKLTVLG
notes: human IgG1
B4: COV_1184 (antibody, V domains shown)
VH: QVQLQQWGAGLLKPSETLSLTCAVYGGSFSGYYWSWIRQPPGKGLEWIGEINHSGNTTYNPSLKSRVTISVDTSKNQFSLKLSSVTAADTAVYYCARGLVITYYYDSSGKPFDPWGQGTLVTVSS
VL: not shown
notes: human IgG1
B5: COV_3069 (antibody, V domains shown)
VH: EVQLVESGGGLVKPGGSLRLSCAASGFTFGSYTMNWVRQAPGKGLEWVSSIDTTSSSIYYADSLKGRFAISRDSAKNSLYLQMNRLRAEDTAVYYCARGNGHSYDSSGYHYGMYFDYWGQGTLVTVSS
VL: DIQMTQSPSTLSASVGDRVTITCRASQSISRWLAWYQQKPGKAPKLLIYEVSSLENGVPSRFSGSRSGTEFTLTISSLQPDDFAIYYCQQYNTYSRTFGQGTKVEIKR
notes: human IgG1
B6: COV_1154 (antibody, V domains shown)
VH: EVQLVESGGGLVKPGGSLRLSCAASGFRFSDYNMNWVRQAPGKGLEWVSYISSSSSYIYYADSVKGRFTISRDNAKNSLYLQMNSLRGEDTAVYSCAREASGAYYFDRSGYFDYWGQGTLVTVSP
VL: DIQMTQSPSTLSASVGDRVTITCRASQSISSWLAWYQQKPGKAPNLLIYKASSLESGVPSRFSGSGSGTEFTLTISSLQPYDFATYYCQQYNSYPWAFGQGTKVEMKR
notes: human IgG1
B7: COV_1145 (antibody, V domains shown)
VH: QVQLVESGGGVVQPGRSLRLSCAASGFTFSSYGMHWVRQAPGKGLEWVAVIWYDGSNKYYADSVKGRFTISRDNSKNTLYLQMNSLRVEDTAVYYCAREGQLGATGLDCWGQGTLVSVSS
VL: SYELTQPPSVSVSPGQTARITCSGDALPKKYAYWYQQKSGQAPVLVIYEDSKRPSGIPERFSGSSSGTMATLTISGAQVEDEADYYCYSTDNSGNHWVFGGGTKLTVLG
notes: human IgG1
B8: COV_2215 (antibody, V domains shown)
VH: EVQLVESGGGLVKPGGSLRLSCAASGFTFSHAWMSWVRQAPGKGLEWVGRIKSKTDGGTADYAAPVKGRFTISRDDSKNTLYLQMNSLKTEDTAVYYCATIRYYYDSSAYLNDAFDIWGQGTMVTVSS
VL: B7 VL with N92S, W97R, G100A
notes: human IgG1
B9: COV_2169 (antibody, V domains shown)
VH: EVQLVESGGGVVQPGRSLRLSCAASGFTFSRYAMHWVRQAPGKGLEWVAVISYEGSNKYYADSVKGRFTISRNNSNNTLSLQMNSLRPDDTAVYYCVRSGGHYFDAFDLWGQGTMVTVSS
VL: EIVLTQSPGTLSLSPGERATLSCRASQSVSRNYVAWYQQKPGQAPRLLIYGASSRATGIPDRFSGSGSGTDFTLTISRLEPEDFALYYCQQYGSSYTFGQGTKLEIKR
notes: human IgG1
B10: COV_2205 (antibody, V domains shown)
VH: EVQLVESGGGLVKPGGSLRLSCAASGFTFSDYYMIWIRQAPGEGLEWVSYISSRSSYTNYADSVKGRFTISRDNARNSLYLQMNSLRAEDTAVYYCARGQHDLLTGYYSWAYFDYWGQGTLVTVSS
VL: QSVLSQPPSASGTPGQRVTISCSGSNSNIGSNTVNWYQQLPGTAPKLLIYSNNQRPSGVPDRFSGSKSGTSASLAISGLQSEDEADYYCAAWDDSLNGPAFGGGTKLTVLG
notes: human IgG1
B11: COV_3129 (antibody, V domains shown)
VH: QVQLQQWGAGLLKPSDTLSLTCAANGGGSFSGYYLGYIRQSPGKGLEWIGEINHNGGTNYNPSLKSRVTISGDTSKNQFSLKLSSVTAADTAIYYCARSRDSSLGDAVWYEYWGQGTLITVSS
VL: EIVLTQSPATLSLSPGERATLSCRASQSVDIYLAWYQQRPGQAPRLLISDASKRATGVPARFSGSGSGTDFTLTINSLEPEDFAIYYCQQRRDWPINFGQGTRLEIKR
notes: human IgG1

One test has as its target T1, HCoV-HKU1 spike antigens (bead panel) (HCoV-HKU1, UniProt Q5MQD0 13-1300).
T1 sequence: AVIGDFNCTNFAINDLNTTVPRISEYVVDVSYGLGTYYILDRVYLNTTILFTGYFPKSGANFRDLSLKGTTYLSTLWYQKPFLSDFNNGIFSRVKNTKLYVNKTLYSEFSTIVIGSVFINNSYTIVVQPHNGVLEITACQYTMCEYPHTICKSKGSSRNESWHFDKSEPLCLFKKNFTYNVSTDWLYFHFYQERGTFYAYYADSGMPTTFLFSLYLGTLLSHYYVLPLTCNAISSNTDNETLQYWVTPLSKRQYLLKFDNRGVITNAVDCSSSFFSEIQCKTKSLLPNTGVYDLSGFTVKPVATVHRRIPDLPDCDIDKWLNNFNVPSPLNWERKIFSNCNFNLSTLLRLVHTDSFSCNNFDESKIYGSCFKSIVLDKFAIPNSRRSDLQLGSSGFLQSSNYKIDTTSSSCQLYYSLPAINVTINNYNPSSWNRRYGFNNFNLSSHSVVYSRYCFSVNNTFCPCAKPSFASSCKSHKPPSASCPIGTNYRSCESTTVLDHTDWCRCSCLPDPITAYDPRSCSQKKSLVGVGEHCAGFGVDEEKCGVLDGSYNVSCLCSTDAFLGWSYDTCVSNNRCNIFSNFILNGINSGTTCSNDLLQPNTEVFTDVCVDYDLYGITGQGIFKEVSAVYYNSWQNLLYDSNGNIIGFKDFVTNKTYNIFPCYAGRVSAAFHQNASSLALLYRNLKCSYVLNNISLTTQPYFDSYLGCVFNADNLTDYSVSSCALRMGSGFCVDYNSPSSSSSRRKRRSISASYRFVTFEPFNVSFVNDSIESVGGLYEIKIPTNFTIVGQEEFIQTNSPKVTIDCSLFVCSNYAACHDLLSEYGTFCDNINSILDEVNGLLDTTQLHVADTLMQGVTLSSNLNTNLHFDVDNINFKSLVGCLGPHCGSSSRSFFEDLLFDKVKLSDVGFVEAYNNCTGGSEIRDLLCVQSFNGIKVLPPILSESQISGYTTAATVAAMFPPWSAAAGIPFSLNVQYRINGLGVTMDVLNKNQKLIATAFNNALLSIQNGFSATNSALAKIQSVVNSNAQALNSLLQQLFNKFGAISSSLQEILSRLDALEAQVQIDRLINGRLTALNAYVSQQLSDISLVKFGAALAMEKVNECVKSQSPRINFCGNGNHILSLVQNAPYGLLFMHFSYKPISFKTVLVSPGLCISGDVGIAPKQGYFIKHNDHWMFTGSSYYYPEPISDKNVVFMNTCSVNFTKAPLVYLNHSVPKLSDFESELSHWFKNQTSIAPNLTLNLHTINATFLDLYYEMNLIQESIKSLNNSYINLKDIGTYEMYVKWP
As to the kind of experiment: multiplex bead assay.
As to B1, the binding result was “no binding”.

As to B2, the binding result is “no binding”.

Take B3: the binding result is listed as “no binding”.

As to B4, the binding result is on record as “no binding”.

With B5, the binding result is given as “no binding”.

In the case of B6, the binding result is on record as “no binding”.

For the molecule B7, the binding result is listed as “no binding”.

As to B8, the binding result is listed as “no binding”.

Take B9: the binding result is given as “no binding”.

B10: the binding result is given as “no binding”.

For B11, the binding result is listed as “no binding”.

A further test addresses T2, HCoV-229E spike antigens (bead panel) (HCoV-229E, UniProt P15423 16-1115).
T2 sequence: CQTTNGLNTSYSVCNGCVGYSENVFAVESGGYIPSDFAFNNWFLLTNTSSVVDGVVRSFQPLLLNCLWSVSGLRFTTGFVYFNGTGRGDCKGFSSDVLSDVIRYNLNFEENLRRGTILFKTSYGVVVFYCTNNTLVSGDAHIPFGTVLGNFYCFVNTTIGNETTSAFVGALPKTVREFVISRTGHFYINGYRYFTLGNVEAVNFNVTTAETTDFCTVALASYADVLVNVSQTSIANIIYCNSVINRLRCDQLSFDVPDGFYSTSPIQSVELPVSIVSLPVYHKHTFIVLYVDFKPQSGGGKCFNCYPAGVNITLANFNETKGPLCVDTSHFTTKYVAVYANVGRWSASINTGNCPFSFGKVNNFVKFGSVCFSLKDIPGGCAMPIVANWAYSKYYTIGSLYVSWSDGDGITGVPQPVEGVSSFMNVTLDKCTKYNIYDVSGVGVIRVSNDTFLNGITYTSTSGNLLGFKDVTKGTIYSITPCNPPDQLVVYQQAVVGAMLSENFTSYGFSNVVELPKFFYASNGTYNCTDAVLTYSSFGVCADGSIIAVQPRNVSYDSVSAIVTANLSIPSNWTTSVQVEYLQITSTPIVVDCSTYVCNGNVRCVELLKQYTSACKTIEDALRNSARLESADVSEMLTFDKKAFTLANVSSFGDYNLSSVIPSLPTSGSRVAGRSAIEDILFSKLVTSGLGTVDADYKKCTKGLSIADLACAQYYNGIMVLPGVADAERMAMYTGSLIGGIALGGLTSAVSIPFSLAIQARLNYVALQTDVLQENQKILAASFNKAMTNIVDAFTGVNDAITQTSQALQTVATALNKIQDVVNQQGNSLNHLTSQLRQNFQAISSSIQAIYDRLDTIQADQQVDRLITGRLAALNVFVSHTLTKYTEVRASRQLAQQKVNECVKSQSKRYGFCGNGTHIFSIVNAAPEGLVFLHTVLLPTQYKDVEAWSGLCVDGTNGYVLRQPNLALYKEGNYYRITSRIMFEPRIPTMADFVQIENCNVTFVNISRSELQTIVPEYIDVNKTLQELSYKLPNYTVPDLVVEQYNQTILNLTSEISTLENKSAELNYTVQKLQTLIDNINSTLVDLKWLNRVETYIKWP
As to the kind of experiment: multiplex bead assay.
Take B1: the binding result was “no binding”.

With B2, the binding result is “no binding”.

As to B3, the binding result is listed as “no binding”.

For the molecule B4, the binding result was “no binding”.

With B5, the binding result is “no binding”.

Regarding B6, the binding result is on record as “no binding”.

Consider B7, for which the binding result is “no binding”.

As to B8, the binding result was “no binding”.

As for B9, the binding result is reported as “no binding”.

Regarding B10, the binding result is “no binding”.

With B11, the binding result is given as “no binding”.
